Measured values: patent publication US20230167458A1, “FORSKOLIN-INDUCIBLE PROMOTERS AND HYPOXIA-INDUCIBLE PROMOTERS” (ASKLEPIOS BIOPHARMACEUTICAL, INC., priority 2020, published 2023)
“Also recorded” adds a separate entry of the source.

Legend:
[1] = system: Huh7 human liver cell line; assay: Luciferase expression from forskolin-inducible promoters, transient transfection of PM-RQ plasmid in Huh7; assay type: cell-based; parameters: luciferase activity following induction / fold induction of promoter (luciferase activity): dose or concentration left out as unconfirmed
Description: (§1) Luciferase readouts were normalised to β-galactosidase to produce normalised relative luminometer units (RLUs). β-galactosidase containing pcDNA6 plasmid was used as internal control for transfection efficiency (Thermofisher, V22020). β-galactosidase activity was measured as per manufacturer's instructions (Mammalian βGalactosidase Assay Kit, 75707/75710, Thermo Scientific) using 25 μl of lysate. 25 μl of lysate was transferred into a microplate well and mixed with 25 μl of β-galactosidase Assay Reagent, equilibrated to room temperature. The mixture was incubated at 37° C. for 30 min and absorbance measured at 405 nm.
(§2) The forskolin-inducible promoters were initially used to drive expression of luciferase in the Huh7 human liver cell line and the C2C12 […]. The promoter constructs were used to drive expression of luciferase in the PM-RQ plasmid. The tested promoters were synthesised directly upstream of the ATG of PM-RQ plasmid.
• Huh7 cells which are a human liver cell line • DPBS: without CaCl2, without MgCl2 (Gibco, 14190-094) • DMEM (Sigma, D6546) • FBS (Sigma, F9665) • Pen-Strep (Sigma, P4333) • Promega Fugene-HD (E2311) • Forskolin (Sigma, F6886) • NKH477 (Sigma, N3290) • LARII (Dual Luciferase Reporter 1000 assay system, Promega, E1980) • 48 well plates flat bottom (353230, Corning) • Trypsin-EDTA (25200-056, Gibco) • T25 & T75 flask (353108, 353136, Corning) • 15 ml Falcon tubes (430791, Corning) • Stripettes 5 ml, 10 ml and 25 ml (4101,4051,4251, Corning)
Cells were seeded onto a 48 well plate at a density of 25,000 cells/300 μl
• On the day of transfection, DNA to be transfected was diluted to a 100 ng/μl stock solution. DNA to be transfected was the RTV-017, RTV-019 or CMV-IE promoter driving luciferase in the PM-RQ plasmid. • Per 48 well transfection, 45 ng of DNA was mixed with 4.1 μl of Optimem medium. • 0.5 μl of […] was mixed with 4 μl of Optimem medium. • These 2 solutions were mixed and incubated at room temperature for 15 minutes. • The final solution was then added to the well drop wise. • 3 hrs after transfection the inducer was added to the appropriate wells at the indicated concentration. Inducer was forskolin at […].
• 24 hrs after induction, the luciferase activity was measured as described below.
• Luciferase activity was measured using LARII (Dual Luciferase Reporter 1000 assay system, Promega, E1980) • 24 hours after induction, the media was removed from the cells • The cells were washed once in 300 μl of DPBS. • Cells were lysed using 100 μl of passive lysis buffer and incubated with rocking for 15 minutes. • The cell debris was pelleted by centrifugation of the plate at max speed in a benchtop centrifuge for 1 min • For luciferase, 10 μl sample was transferred into white 96-well plate and luminescence measured by injection of 50 μl of LARII substrate
RTV-017 and RTV-019 were transiently transfected into the human liver cell line Huh7 (FIG. 2). RTV-019 was transiently transfected into the […] C2C12 (FIG. 3). The activity of the promoters was assessed using luciferase activity. The luciferase activity was measured with and without the presence of […] forskolin.

[2] = system: C2C12 human muscle cell line; assay: Luciferase expression from forskolin-inducible promoter, transient transfection in differentiated C2C12; assay type: cell-based
Description: as §1, §2
• Media was prewarmed at 37° C. before use • C2C12 Complete Medium was used to grow the cells before differentiation. […]
C2C12 cells were maintained at 37° C., 5% CO2. […] Detachment was monitored under the microscope. • 4 ml C2C12 Complete Medium was added to inactivate Trypsin and the cells were transferred into a 15 ml tube. • The cells were centrifuged for 3 mins at 250 RCF at room temperature. • The supernatant was aspirated • The cells were resuspended by gentle pipetting up and down in 6 ml C2C12 Complete Medium • The cells were counted in a haemocytometer by using trypan blue (Thermofisher, 15250061) to determine the how many of the cells were alive. Trypan blue stains dead cells in blue and this allows for them not to be counted. The cells were resuspended into trypan blue in ration of 1:10, e.g. 10 μl cells and 90 μl trypan blue and counted using a haemocytometer. • The cells were seeded in complete medium at a density dependent on the passage number. […] The abovementioned densities are experimentally determined for efficient differentiation and transfection. […]

B1: RTV-019: synthetic forskolin-inducible promoter, SEQ ID NO: 44; 3× ATF6, 4× AP1(1) and 3× HRE1 TFBS and CMV-MP (nucleic acid)
DNA: TGACGTGCTGATGATGCGTAGCTAGTAGTTGACGTGCTGATGATGCGTAGCTAGTAGTTGACGTGCTGATGATGCGTAGCTAGTAGTTGAGTCAGATGATGCGTAGCTAGTAGTTGAGTCAGATGATGCGTAGCTAGTAGTTGAGTCAGATGATGCGTAGCTAGTAGTTGAGTCAGATGATGCGTAGCTAGTAGTCTGCACGTAGATGATGCGTAGCTAGTAGTCTGCACGTAGATGATGCGTAGCTAGTAGTCTGCACGTAGATGATGCGTAGCTAGTAGTGCAGTTAGCGTAGCTGAGGTACCGTCGACGATATCGGATCCAGGTCTATATAAGCAGAGCTCGTTTAGTGAACCGTCAGATCGCCTAGATACGCCATCCACGCTGTTTTGACCTCCATAGAAGATCGCCACC
modifications: Synp-RTV-019
notes: 3× ATF6, 4× AP1(1) and 3× HRE1 TFBS and CMV-MP
luciferase activity without induction (background) ([1]; Huh7, before addition of forskolin): low background activity | luciferase activity following induction ([1]; Huh7, forskolin): high activity; also recorded: much higher activity | fold induction of promoter (luciferase activity) ([1]; Huh7 liver cells, PM-RQ plasmid, forskolin, 24 hrs after induction): 24 fold | luciferase activity following induction ([2]; C2C12, 20 µM forskolin): high activity; also recorded: much higher activity | luciferase activity without induction (background) ([2]; C2C12, before addition of forskolin): low background activity | fold activation of promoter (luciferase activity) ([2]; C2C12 muscle cells, 20 µM forskolin, 24 hrs): 6 fold
